The supplement of paper PMC7877785
± gives the uncertainty stated by the source.

Assay: self-splicing fitness, log relative to wild type (ln ratio); higher = more splicing; Tetrahymena group I intron in knt gene, E. coli kanamycin selection, DiMSum; sequences stand for … in CUCUCU…GGAGGGAAAAGUUAUCAGGCAUGCACCUGGUAGCUAGUCUUUAAACCAAUAGAUUGCAUCGGUUUAAAAGGCAAGACCGUCAAAUUGCGGGAAAGGGGUCAACAGCCGUUCAGUACCAAGUCUCAGGGGAAACUUUGAGAUGGCCUUGCAAAGGGUAUGGUAAUAAGCUGACGGACAUGGUCCUAACCACGCAGCCAAGUCCUAAGUCAACAGAUCUUCUGUUGAUAUGGAUGCAGUUCACAGACUAAAUGUCGGUCGGGGAAGAUGUAUUCUUCUCAUAAGAUAUAGUCGGACCUCUCCUUAAUGGGAGCUAGCGGAUGAAGUGAUGCAACACUGGAGCCGCUGGGAACUAAUUUGUAUGCGAAAGUAUAUUGAUUAGUUUUGGAGUACUCGUGGUCG
Outline: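 Six replicate transformations of E. coli BL21(DE3) with a pET-22b(+) library were grown overnight at 37°C or 30°C. The library randomised all eight P1ex-region intron nucleotides, the intron lying in the knt kanamycin-resistance gene, and plates were LB agar with or without 25 μg/mL kanamycin plus 100 μg/mL carbenicillin, 50 μM IPTG and 0.2% rhamnose. Pooled colonies were amplicon-sequenced on an Illumina HiSeq 2500, and fitness is the DiMSum error-weighted combination of wild-type-normalised replicate fold changes, kanamycin versus none.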

Row | Sequence | self-splicing fitness (ln) (30 °C) | self-splicing fitness (ln) (37 °C)
1 | CGGCAGCAAUAUUACGAAUC | -4.16 ± 0.39 | -2.23 ± 0.34
2 | CGGCAGCAAUAUUACGAAUU | -3 ± 0.23 | -2.6 ± 0.33
3 | CGGCAGCAAUAUUACGACGC | -3.45 ± 0.28 | -0.355 ± 0.21
4 | CGGCAGCAAUAUUACGAGCA | -2.99 ± 0.24 | -0.81 ± 0.13
5 | CGGCAGCAAUAUUACGAUAU | -4.27 ± 0.23 | -1.51 ± 0.098
6 | CGGCAGCAAUAUUACGCAAG | -1.93 ± 0.13 | -1.01 ± 0.16
7 | CGGCAGCAAUAUUACGCAUA | -2.08 ± 0.21 | -1.03 ± 0.13
8 | CGGCAGCAAUAUUACGCGGG | -2.12 ± 0.12 | -1.42 ± 0.13
9 | CGGCAGCAAUAUUACGCUCU | -2.11 ± 0.14 | -0.612 ± 0.16
10 | CGGCAGCAAUAUUACGGCAU | -0.976 ± 0.088 | -0.0577 ± 0.1
11 | CGGCAGCAAUAUUACGGGGG | -3 ± 0.13 | -1.86 ± 0.16
12 | CGGCAGCAAUAUUACGGGUU | -4.26 ± 0.28 | -2.87 ± 0.33
13 | CGGCAGCAAUAUUACGGUAC | -3.61 ± 0.49 | -2.9 ± 0.23
14 | CGGCAGCAAUAUUACGUACA | -1.26 ± 0.11 | -0.624 ± 0.14
15 | CGGCAGCAAUAUUACGUCCG | -2.03 ± 0.12 | -2.92 ± 0.24
16 | CGGCAGCAAUAUUACGUCUA | -0.607 ± 0.071 | 0.443 ± 0.084
17 | CGGCAGCAAUAUUACGUCUU | -1.09 ± 0.066 | 0.328 ± 0.086
18 | CGGCAGCAAUAUUACGUGUA | -3.77 ± 0.25 | -2.21 ± 0.14
19 | CGGCAGCAAUAUUACGUUCA | -0.358 ± 0.068 | 0.0795 ± 0.082
20 | CGGCAGCAAUAUUACGUUUA | -2.06 ± 0.12 | -1.53 ± 0.13
21 | CGGCAGCAAUAUUACGUUUC | -3.29 ± 0.17 | -2.36 ± 0.19
22 | CGGGAGCAAUAUUACGAACU |  | -1.25 ± 0.45
23 | CGGGAGCAAUAUUACGAAGG | -1.9 ± 0.39 | -1.74 ± 0.41
24 | CGGGAGCAAUAUUACGACUU | -1.58 ± 0.37 | -1.83 ± 0.49
25 | CGGGAGCAAUAUUACGAGUG | -3.61 ± 0.24 | -1.61 ± 0.2

Row | Sequence | self-splicing fitness (ln) (30 °C) | self-splicing fitness (ln) (37 °C)
26 | CGGGAGCAAUAUUACGAUAA | -3.16 ± 0.25 | -2.57 ± 0.39
27 | CGGGAGCAAUAUUACGCAGA | -3.67 ± 0.48 | -2.01 ± 0.29
28 | CGGGAGCAAUAUUACGCCCA | -2.28 ± 0.25 | -1.24 ± 0.28
29 | CGGGAGCAAUAUUACGCGAA | -2.47 ± 0.25 | -1.9 ± 0.23
30 | CGGGAGCAAUAUUACGCUCA | -4.3 ± 0.46 | -0.0948 ± 0.37
31 | CGGGAGCAAUAUUACGCUUA | -2.19 ± 0.21 | -2.87 ± 0.43
32 | CGGGAGCAAUAUUACGGACG | -2 ± 0.14 | -2.14 ± 0.23
33 | CGGGAGCAAUAUUACGGCUC | -3 ± 0.3 | -2.12 ± 0.42
34 | CGGGAGCAAUAUUACGGUCG | -2.77 ± 0.24 | -2.43 ± 0.27
35 | CGGGAGCAAUAUUACGGUCU | -2.67 ± 0.29 | -0.781 ± 0.45
36 | CGGGAGCAAUAUUACGGUGU | -3.71 ± 0.24 | -2.48 ± 0.25
37 | CGGGAGCAAUAUUACGUCAG | -3.08 ± 0.19 | -2.34 ± 0.24
38 | CGGGAGCAAUAUUACGUCCU | -2.54 ± 0.25 | 
39 | CGGGAGCAAUAUUACGUGGC | -2.62 ± 0.21 | -2.43 ± 0.36
40 | CGGUAGCAAUAUUACGAAAC |  | -2.72 ± 0.27
41 | CGGUAGCAAUAUUACGAAAG | -0.203 ± 0.16 | -0.493 ± 0.16
42 | CGGUAGCAAUAUUACGAGGU | -3.59 ± 0.25 | -2.03 ± 0.25
43 | CGGUAGCAAUAUUACGAUAC | -2.53 ± 0.22 | 
44 | CGGUAGCAAUAUUACGAUCC | -1.23 ± 0.22 | -1.56 ± 0.34
45 | CGGUAGCAAUAUUACGCUAC | -2.96 ± 0.47 | -2.93 ± 0.43
46 | CGGUAGCAAUAUUACGCUUA |  | -1.95 ± 0.2
47 | CGGUAGCAAUAUUACGUACU | -1.36 ± 0.15 | -0.578 ± 0.16
48 | CGGUAGCAAUAUUACGUCAA | -1.08 ± 0.29 | 
49 | CGGUAGCAAUAUUACGUCCC | -0.348 ± 0.48 | 0.985 ± 0.48
50 | CGGUAGCAAUAUUACGUGGU | -3.17 ± 0.21 | -2.3 ± 0.21

Row | Sequence | self-splicing fitness (ln) (30 °C) | self-splicing fitness (ln) (37 °C)
51 | CGUAAGCAAUAUUACGAAAA | -3.49 ± 0.31 | -1.49 ± 0.16
52 | CGUAAGCAAUAUUACGAUAC |  | -2.9 ± 0.47
53 | CGUAAGCAAUAUUACGAUUA | -2.03 ± 0.23 | -1.64 ± 0.32
54 | CGUAAGCAAUAUUACGCAUA | -3.73 ± 0.34 | -3.16 ± 0.21
55 | CGUAAGCAAUAUUACGCCGC | -1.76 ± 0.45 | -2.13 ± 0.42
56 | CGUAAGCAAUAUUACGCGAC | -3.62 ± 0.37 | -2.63 ± 0.42
57 | CGUAAGCAAUAUUACGCGGC | -2.84 ± 0.25 | -2.23 ± 0.3
58 | CGUAAGCAAUAUUACGCUAU | -3.13 ± 0.27 | -4.43 ± 0.42
59 | CGUAAGCAAUAUUACGCUCC | -2.95 ± 0.41 | -1.74 ± 0.48
60 | CGUAAGCAAUAUUACGGAUG | -0.733 ± 0.091 | -0.608 ± 0.12
61 | CGUAAGCAAUAUUACGGCUA | -2.35 ± 0.41 | -1.48 ± 0.33
62 | CGUAAGCAAUAUUACGGCUC |  | -0.977 ± 0.42
63 | CGUAAGCAAUAUUACGGGAG | -2.21 ± 0.22 | -2.81 ± 0.36
64 | CGUAAGCAAUAUUACGGGUU | -3.63 ± 0.17 | -2.98 ± 0.29
65 | CGUAAGCAAUAUUACGGUAC | -3.29 ± 0.28 | -1.78 ± 0.19
66 | CGUAAGCAAUAUUACGGUCG | -0.611 ± 0.12 | 0.212 ± 0.14
67 | CGUAAGCAAUAUUACGUAAA | -3.15 ± 0.24 | -2.1 ± 0.22
68 | CGUAAGCAAUAUUACGUAAG | -1.49 ± 0.1 | -0.165 ± 0.092
69 | CGUAAGCAAUAUUACGUACC | -1.94 ± 0.21 | -1.76 ± 0.24
70 | CGUAAGCAAUAUUACGUAUA | -2.48 ± 0.26 | -2.21 ± 0.26
71 | CGUAAGCAAUAUUACGUAUG | -2.17 ± 0.08 | -0.311 ± 0.072
72 | CGUAAGCAAUAUUACGUCUA | -2.78 ± 0.28 | -2.03 ± 0.18
73 | CGUAAGCAAUAUUACGUGAG | -2.17 ± 0.11 | -1.09 ± 0.092
74 | CGUAAGCAAUAUUACGUGGU | -3.19 ± 0.13 | -2.72 ± 0.16
75 | CGUAAGCAAUAUUACGUUCC | -2.63 ± 0.3 | 

Row | Sequence | self-splicing fitness (ln) (30 °C) | self-splicing fitness (ln) (37 °C)
76 | CGUCAGCAAUAUUACGAAUC | -3.1 ± 0.27 | -0.891 ± 0.33
77 | CGUCAGCAAUAUUACGACAU | -0.647 ± 0.012 | -0.0443 ± 0.032
78 | CGUCAGCAAUAUUACGACGU | -3.23 ± 0.17 | -1.93 ± 0.14
79 | CGUCAGCAAUAUUACGAGAU | -3.93 ± 0.21 | -2.65 ± 0.17
80 | CGUCAGCAAUAUUACGAGGG | -3.93 ± 0.1 | -1.81 ± 0.099
81 | CGUCAGCAAUAUUACGAUCC | -1.62 ± 0.086 | -0.418 ± 0.13
82 | CGUCAGCAAUAUUACGCCCC | -0.652 ± 0.24 | -1.34 ± 0.3
83 | CGUCAGCAAUAUUACGCGCG | -4.06 ± 0.39 | -2.19 ± 0.36
84 | CGUCAGCAAUAUUACGCGCU | -0.602 ± 0.18 | -2.64 ± 0.32
85 | CGUCAGCAAUAUUACGCGUU | -2.71 ± 0.14 | -2.01 ± 0.18
86 | CGUCAGCAAUAUUACGCUCU | -1.14 ± 0.12 | -0.257 ± 0.12
87 | CGUCAGCAAUAUUACGGAGC | -3.85 ± 0.42 | -1.95 ± 0.26
88 | CGUCAGCAAUAUUACGGCUG | -1.51 ± 0.12 | -1.24 ± 0.23
89 | CGUCAGCAAUAUUACGGCUU | -1.34 ± 0.11 | -0.493 ± 0.099
90 | CGUCAGCAAUAUUACGGGUG | -1.9 ± 0.091 | -0.977 ± 0.11
91 | CGUCAGCAAUAUUACGGUCA | -0.717 ± 0.08 | 0.201 ± 0.1
92 | CGUCAGCAAUAUUACGGUCC | -1.34 ± 0.079 | -0.173 ± 0.1
93 | CGUCAGCAAUAUUACGUAAU | -2.93 ± 0.17 | -1.2 ± 0.13
94 | CGUCAGCAAUAUUACGUCCC | -3.43 ± 0.31 | -0.834 ± 0.22
95 | CGUCAGCAAUAUUACGUGUG | -0.543 ± 0.059 | -0.104 ± 0.068
96 | CGUCAGCAAUAUUACGUUCG | -1.45 ± 0.068 | -0.148 ± 0.096
97 | CGUGAGCAAUAUUACGACCC | -1.76 ± 0.23 | -0.787 ± 0.16
98 | CGUGAGCAAUAUUACGAGGA | -3.04 ± 0.39 | -1.65 ± 0.33
